{"source": "the nanobody polyreactivity screen of Harvey et al. (2022)"}
{"assay": "yeast display, Sf9 membrane polyspecificity reagent, FACS + sequencing; frameworks hold sequencing errors", "outline": "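A nanobody's polyreactivity label depends on the gate it was sorted from. Yeast display cells were stained with 10% biotinylated, detergent-solubilized Sf9 membrane reagent for 1 hour at 4 °C, enriched on streptavidin microbeads and sorted by FACS. The low and high (top ~1%) gates were set on anti-HA fluorescence for expression and streptavidin fluorescence for reagent binding.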"}
{"sequence": "QVQLVESGGGLVQAGGSLRLSCPASGSSSVYNAMGWYRQAPGKERELVAAISWSGGRTSYADSVKGRFTISRDIAKNTVYLQMNSLKPEDTAVYFCAAHTVYSPPRVAGPGYDYWGQGTQVTVSS", "polyreactivity (PSR sort gate)": "low polyreactivity"}
{"sequence": "QVQLVESGGGLVQAGGSLRLSCPASGSTFPYYAMGWYRQAPGKERELVARINWGGSSTYYADSVKGRFTISRDNAKNTVYLQMNSLKPEDTAVYYCARYSSRWSLMDYWGQGTQVTVSS", "polyreactivity (PSR sort gate)": "high polyreactivity"}
{"sequence": "QVQLVESGGGLVQAGGSLRLSCPASGSTFQYYHMGWYRQEPGKERELVASITGSGDSTYYADSVKGRFTISRDNAKNTVYLQMNSLNPEDTAVYYCAAQITWSGYYDYWGQGTQVTVSS", "polyreactivity (PSR sort gate)": "low polyreactivity"}
{"sequence": "QVQLVESGGGLVQAGGSLRLSCPASGSTFRSNVMGWYRQAPGKERELVAAITSSGGSTYYADSVKGRFTISRDNAKNTVYLQMNSLKPEDTAVYYCAAVGYGWDPYKRLVRHSYDSWGQGTQVTVSS", "polyreactivity (PSR sort gate)": "low polyreactivity"}
{"sequence": "QVQLVESGGGLVQAGGSLRLSCPASGSTFRYYAMGWYRPAPGKERELVAGISSSGGSTYYADSVKGRFTISRDNAKNTVYLQMNSLKPEDTAVYYCNAARGTSRSWAVFADYDYWGQGSQVTVSS", "polyreactivity (PSR sort gate)": "high polyreactivity"}
{"sequence": "QVQLVESGGGLVQAGGSLRLSCPASGSTFYGYVMGGYRQAPGKERELVAAISGSTYYADSVKGRFTISRDNAKNTVYLQMNSLKPEDTAVYYCNADDYRSYGGDSWGQGTQVTVSS", "polyreactivity (PSR sort gate)": "low polyreactivity"}
{"sequence": "QVQLVESGGGLVQAGGSLRLSCPASGYILHKYAMGSYRQAPGKERELVATISGGGGSTYYADSVKGRFTISRDNAKNTVYLQMNSLKPEDTAVYYCAIEYPWLPRSYEYGGQGTQVTVSS", "polyreactivity (PSR sort gate)": "low polyreactivity"}
{"sequence": "QVQLVESGGGLVQAGGSLRLSCPDSVFTFGATVMGWYRQAPGKEREFVAGITWSGDSTYYADSVKGRFTISRDNAKNTVYFQMNSLKPEDTAVYYCAADVYDGAYILDYDYWGQGTQVTVSS", "polyreactivity (PSR sort gate)": "low polyreactivity"}
{"sequence": "QVQLVESGGGLVQAGGSLRLSCPDSVRIFYYNTMGWYRQAPGKERQLVAAISAGGGRTYYADSVKGRFTISRDNAKNTVYFQMNRLKPEDTAVYYCAARKRAQQGTRDHDYWGQGSQVTVSS", "polyreactivity (PSR sort gate)": "high polyreactivity"}
{"sequence": "QVQLVESGGGLVQAGGSLRLSCPSSGFTFSAYAMGWYRQAPGKERELVAAISTRGGSTRYADSVKGRFTISRDNAKNTVNVQMNSLTPDDTAVYYCAADTRSFYRYDYWGQGTQVTVSS", "polyreactivity (PSR sort gate)": "high polyreactivity"}
{"sequence": "QVQLVESGGGLVQAGGSLRLSCSACGSIFFYYAMGWYRQAPGKERELVAAITFTGGSTYYADSVKGRFTISRDNAKNTVYLRMNSLKPEDTAVYYCAADWYYGDEYEYWGQGTQVTVSS", "polyreactivity (PSR sort gate)": "high polyreactivity"}
{"sequence": "QVQLVESGGGLVQAGGSLRLSCSASGFIFRFYGMGWYRQAPGKERELVASIRRSGGSTYYADSVKGRFTISRDNAKNSVYLQMNSLKPEDTAVYDCAARWYVYVHFERYYWGQGTQVTVSS", "polyreactivity (PSR sort gate)": "high polyreactivity"}
{"sequence": "QVQLVESGGGLVQAGGSLRLSCSASGFIFYLYTMGWYRQAPGKERELVAAITKSGTRTYYADSVKGRFTISRDNAKNTVYLQMNSLKPEDTAVYYCAAEWGSSYRWGMDYWGQGTQVTVSS", "polyreactivity (PSR sort gate)": "high polyreactivity"}
{"sequence": "QVQLVESGGGLVQAGGSLRLSCSASGFIYPNNAMGWYRQAPGKERELVARISYGGGDTHYADSVKGRFTISRDNAKNTVYLQMNSLKPEDTAVYYCAVKDGQDDYWGQGTQVTVSS", "polyreactivity (PSR sort gate)": "low polyreactivity"}
{"sequence": "QVQLVESGGGLVQAGGSLRLSCSASGFTFWVNAMGWYRQAPGKERELVAAISRRGGRTYYADSVKGRYTISRDNAKNTVYLQMNSLKPEDTAVYYCNKEDVGCSESDYWGQGTQVTVSS", "polyreactivity (PSR sort gate)": "high polyreactivity"}
{"sequence": "QVQLVESGGGLVQAGGSLRLSCSASGFTFYYAMGWYRQAPGKERELVAAITSSGTTYYADSVKGRFTISRDNAKNTVYLQMHSLKPEDTAVYYCNAVRWSKYAFYDYWGQGTQVTVSS", "polyreactivity (PSR sort gate)": "high polyreactivity"}
{"sequence": "QVQLVESGGGLVQAGGSLRLSCSASGIIFGWYAMGWYRKAPGKEREFVATISWSGASTYYADSVKGRFTISRDNAKNTVYLQLNSLKPEDTAVYYCAAVGRRQAFGRRDYWGQGKQVTVSS", "polyreactivity (PSR sort gate)": "high polyreactivity"}
{"sequence": "QVQLVESGGGLVQAGGSLRLSCSASGIIFIYYGMGWYRKAPGKERELVAAISRSGGRTYYADSVKGRFTISRDNANNTVYFHMNSLKPEDTAVYYCANTYTQTGFDYWGQGTQVTVSS", "polyreactivity (PSR sort gate)": "high polyreactivity"}
{"sequence": "QVQLVESGGGLVQAGGSLRLSCSASGIIFIYYGMGWYRKAPGTERELVAAISRSGGRTYYADSVKGRFTISRDNANNIVYLQMNSLKPEDTAVYYCATTYTPTGFDYWGQGTQVTVSS", "polyreactivity (PSR sort gate)": "high polyreactivity"}
{"sequence": "QVQLVESGGGLVQAGGSLRLSCSASGIIFKYYAMGWYRQAPVKERELVAAISRSSGSTYYADSVKGRFTISRDNAKNTVYLQMNSLKPEDTAVYYCAASGWQQKLDYWVQGTQVTVSS", "polyreactivity (PSR sort gate)": "high polyreactivity"}
{"sequence": "QVQLVESGGGLVQAGGSLRLSCSASGITFGRNTKGWYRQAPGKERELVAASDSGGNTYADSVKGRFTISRDNAKNTVYLQMNSLKPEDTAVYYCAVDGGEFSSYGYWGQGTQVTVSS", "polyreactivity (PSR sort gate)": "low polyreactivity"}
{"sequence": "QVQLVESGGGLVQAGGSLRLSCSASGLIFPSNTMGWYRQAPGTERELVAAITFSGDSTNYADSVKGRFTISRDNAKNTVYVQMNSLKPEDTAVYYCAASQVSDTTRFGYWGQGTQVTVSS", "polyreactivity (PSR sort gate)": "low polyreactivity"}
{"sequence": "QVQLVESGGGLVQAGGSLRLSCSASGNIFFGYAMGLYRQAPGKERQFVASITKIGGSTYYADSVKGRFTISRDNAKNTVYLQLNSLKPEDTAVYYCAARLGHSVNPGGERWDVVYWGQGTQVTVSS", "polyreactivity (PSR sort gate)": "low polyreactivity"}
{"sequence": "QVQLVESGGGLVQAGGSLRLSCSASGRIFHRYTMGWYRQSPGKEREFVAAITTRAGSTYYADSVKGRFTISRDNAKYTVFLQMNSLKPEDTAVYYCNIRRHSMFGGTTTRYDFWGQGTQVTVSS", "polyreactivity (PSR sort gate)": "high polyreactivity"}
{"sequence": "QVQLVESGGGLVQAGGSLRLSCSASGRIFSGYAMGWYRQAPGKERELVAAITSVGSTNYADSVKGRFTISRDNAKNTVYLQMNSLKTEDTAVYYCAARSQIYYRYRSYGYWGQGTQVTVSS", "polyreactivity (PSR sort gate)": "high polyreactivity"}
{"sequence": "QVQLVESGGGLVQAGGSLRLSCSASGRIFVIYDMGWYRQAPGKEWEFVAAISWRTGSTYYADSVKGRFTISRDNAKNTVYLQMNSLKPEDTAVYYCAASIGLVHYDYWGQGTQVTVSS", "polyreactivity (PSR sort gate)": "low polyreactivity"}
{"sequence": "QVQLVESGGGLVQAGGSLRLSCSASGRNFWFYAKGWYRQAPGKERELVAAISSGGSTNYADSVKGRFTISRDNAKNTVYLQMNSLKPEDTAVYYCAKVGNIPYGTRYYSNRYDYWGQGTLVTVSS", "polyreactivity (PSR sort gate)": "low polyreactivity"}
{"sequence": "QVQLVESGGGLVQAGGSLRLSCSASGRTFGAYAMGWSRQAPGKERELVASISRSGGTTYYADSVKGRFTISRDNAKNTVYLQMNSLKPEDTAVYYCAAQYVRYGHYYWGQGTQVTVSS", "polyreactivity (PSR sort gate)": "high polyreactivity"}
{"sequence": "QVQLVESGGGLVQAGGSLRLSCSASGSIFGRKMGWYRQAPVKERELVAAITWSGGRTYYADSVKGRFTISRDNAKNTVYLLMNCLKPEDTAVYYCNAVRRYTGYAFKDDYWGQGNQVTVSS", "polyreactivity (PSR sort gate)": "high polyreactivity"}
{"sequence": "QVQLVESGGGLVQAGGSLRLSCSASGSIFGVYTMGWFRQAPGKERELVAAITSAGSTYADSVKGRFTISRDNAKNTVYLQMNSLKPEDTAVYYCNAESVLLSVLVELREPHEYWGQGTQVTVSS", "polyreactivity (PSR sort gate)": "low polyreactivity"}
{"sequence": "QVQLVESGGGLVQAGGSLRLSCSASGSIFNYYTMGWDRQAPGKERELVAVITWSDDSTYYADSVKGRFTISRDNAKNTVYLQMNSLKPEDTAVYYCNARSWGWYRIAYGYWGQGTQVTVSS", "polyreactivity (PSR sort gate)": "low polyreactivity"}
{"sequence": "QVQLVESGGGLVQAGGSLRLSCSASGSIFPKNAMGWYRQAPGKERELVARISGSGGSTYYADSVKGRFTISRDNAKNTVYLQMNSLKPEDTAVYYCAKDQSKIYSSWSGYYYWGQGTQVTVSS", "polyreactivity (PSR sort gate)": "low polyreactivity"}
{"sequence": "QVQLVESGGGLVQAGGSLRLSCSASGSNFGYYAMGWYRQAPGKERELVASITWTGGSTYYADSVKGRFTISRDNAKNTVYLQMNSLKPEDTAVYYCAAQLEPSYWFWTGYGYWGQGTQVTVSS", "polyreactivity (PSR sort gate)": "high polyreactivity"}
{"sequence": "QVQLVESGGGLVQAGGSLRLSCSASGSTFGYNAMGWYRQAPGKERELVAAILFSGGSTFYADSVKGRFTISRDNAKNTVYLQMNSLKQEDTAVYYCADYAGYYAYDSWGQGTQVTVSS", "polyreactivity (PSR sort gate)": "low polyreactivity"}
{"sequence": "QVQLVESGGGLVQAGGSLRLSCSASGSTFTYYAIGWYRTAPGEERELGAAISWRGTSTYYADSVKGRFTISRDNAKNSVYLQMNSLKTEETAVYSCAGRGLWPYDYWGQGTQVTVSS", "polyreactivity (PSR sort gate)": "low polyreactivity"}
{"sequence": "QVQLVESGGGLVQAGGSLRLSCSASGTISGLYAMGWYRQATGKERELVARIRWRGDSTYYADSVKGRFTISRDNAKNTVYLQMNSLNPEDTAVFYCAASAYSGKVNKYNYWGQGTQVTVSS", "polyreactivity (PSR sort gate)": "high polyreactivity"}
{"sequence": "QVQLVESGGGLVQAGGSLRLSCSASGYTFSSYGMGWYRQAPGKERELVAAITGSTGTTYYADSVQGRFTISRDNAKNTVYLQMISLKPEDTAVYYCAAEYQSYPWYDYWGQGTQVTVSS", "polyreactivity (PSR sort gate)": "high polyreactivity"}
{"sequence": "QVQLVESGGGLVQAGGSLRLSCSASRSTFPGYAMGWYRQAPGKERELVAAISVSGDRTYYADSVKRRFTISRDNPQNTVYLQMNRLKPEDTAVYYCAVRTRYRGSGVWVGNYSWGQGTQVTVSS", "polyreactivity (PSR sort gate)": "high polyreactivity"}
{"sequence": "QVQLVESGGGLVQAGGSLRLSCSAYGFIFTGYAMGWYRQAPGKEREFVAAISYSGGSTYADSVKGRFTISRDNAKNSVYLQMNSLKPEDTAVYYCNARQGLWRYTAENDYWGQGTQVTVSS", "polyreactivity (PSR sort gate)": "low polyreactivity"}
{"sequence": "QVQLVESGGGLVQAGGSLRLSCTASGITSGSYAMGWYRQAPGKERELVAAISNSGSTYYADSVKGRFTISRDNAKNSVYLQMNSLKPEDTAVYYCNADDWWGGYDYWGQGTQVTVSS", "polyreactivity (PSR sort gate)": "low polyreactivity"}
{"sequence": "QVQLVESGGGLVQAGGSLRLSCVASGFIFRRNAMGWYRQAPGKERELVATISSGGNTYYADSVKGRFTISRDNAKNTVYLQMNSLKPVDTAVYYCIASDGLPSKLNVYVEFDYWGQCTQVTVSS", "polyreactivity (PSR sort gate)": "low polyreactivity"}
{"sequence": "QVQLVESGGGLVQAGGSLRLSCVASGFTFIRYAMGWYRQAPGKERELVASITRGGSTYYADSVKGRFTISRDNAKYTVYLQMNSLKPEDTAVYYCATTSYYGYDYWGQGTQVTVSS", "polyreactivity (PSR sort gate)": "high polyreactivity"}
{"sequence": "QVQLVESGGGLVQAGGSLRLSCVASGRIFARNAMGWYRQAPGKERELVAAITWSVGSTYYADSVKGRFTISRDNAKNTVYLQMISLKPEDTAVYYCAERYWYSRYWYDYWGQGTQVTVSS", "polyreactivity (PSR sort gate)": "high polyreactivity"}
